Reference: ChEMBL document CHEMBL1130869, “Peptide-based inhibitors of the hepatitis C virus serine protease” (Bioorg Med Chem Lett, 1998)

Substrate: CC[C@H](C)[C@H](NC(=O)[C@H](CC(=O)O)NC(=O)[C@@H](N)CC(=O)O)C(=O)N[C@H](C(=O)N1CCC[C@H]1C(=O)N[C@@H](CS)C(=O)O)C(C)C
Assay: Km against NS3-4Apep protease determined by non-linear regression analysis of the velocity data
Type: protein-complex assay
Conditions: Hepacivirus hominis

B1: Hepatitis C virus serine protease, NS3/NS4A (Hepatitis C virus), D2K2A8+A3EZI9 (protein)
chain 1: STWVLLGGVLAALAAYCLSVGCVVIVGYIELGGKPALVPDKEVCYQQYDEMEEC
chain 2: APITAYAQQTRGLLGCIITSLTGRDKNQVEGEVQIVSTAAQTFLATCINGVCWTVYHGAGTRTIASSKGPVIQMYTNVDQDLVGWPAPQGARSLTPCTCGSSDLYLVTRHADVIPVRRRGDGRGSLLSPRPISYLKGSSGGPLLCPAGHAVGIFRAAVCTRGVAKAVDFIPVEGLETTMRSPVFSDNSSPPAVPQSYQVAHLHAPTGSGKSTKVPAAYAAQGYKVLVLNPSVAATLGFGAYMSKAHGIDPNIRTGVRTITTGSPITYSTYGKFLADGGCSGGAYDIIICDECHSTDATSILGIGTVLDQAETAGARLTVLATATPPGSVTVPHPNIEEVALSTTGEIPFYGKAIPLEAIKGGRHLIFCHSKKKCDELAAKLVALGVNAVAYYRGLDVSVIPASGDVVVVATDALMTGFTGDFDSVIDCNTCVTQTVDFSLDPTFTIETTTLPQDAVSRTQRRGRTGRGKPGIYRFVTPGERPSGMFDSSVLCECYDAGCAWYELTPAETTVRLRAYMNTPGLPVCQDHLEFWEGVFTGLTHIDAHFLSQTKQSGENLPYLVAYQATVCARAQAPPPSWDQMWKCLIRLKPTLHGPTPLLYRLGAVQNEITLTHPITKYIMTCMSADLEVVT
Km: 37 µM
